From US10280205B2, “Method for treating cancer with an activated T lymphocyte that selectively recognizes a cancer cell consisting of specific peptide” (immatics biotechnologies GmbH, priority 2015, dated 2019)

biological target: HLA-A*02:01 (Homo sapiens, UniProt P04439, D140Y/D185E/D98H/E176V/E277Q/G131W/G231S/I119V/I121R/I166T/I218V/L300P/L318F/N151K/N90K/P208A/P217A/Q86G/Q94H/R138H/R169H/T345S); assay: MHC binding assay: UV-ligand exchange with beta2m ELISA (exchange yield); conditions: binding to HLA-A*02:01, β2m ELISA
Summary of the method: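 Peptide–HLA-A*02:01 complexes formed by UV-induced exchange of a photocleavable ligand for the test peptide. Exchange products diluted 100-fold and captured on streptavidin-coated plates. Stabilized complexes detected with HRP anti-β2m (1 h, 37° C.) and TMB, A450; exchange yield reported.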

| Substance | Peptide exchange (MHC class I binding score, peptide exchange yield) |
| --- | --- |
| 265 (LLFGGTKTV; listed as Homo sapiens) [compound 265] | “++” (≥20% = ++) |
| 50 (SLSELEALM; listed as Homo sapiens) [compound 50] | “+++” (≥50 = +++) |
| 254 (TLLAFIMEL; listed as Homo sapiens) [compound 254] | “+++” (≥50 = +++) |
| 349 (SLTEYLQNV; listed as Homo sapiens) [compound 349] | “++++” (≥75% = ++++) |
| 59 (IMEDIILTL; listed as Homo sapiens) [compound 59] | “+++” (≥50 = +++) |
| 241 (SLVEVNPAYSV; listed as Homo sapiens) [compound 241] | “+++” (≥50 = +++) |
| 136 (YLADPSNLFVV; listed as Homo sapiens) [compound 136] | “+++” (≥50 = +++) |
| 523 (YQIPRTFTL; listed as Homo sapiens) [compound 523] | “++” (≥20% = ++) |
| 611 (YLLDDGTLVV; listed as Homo sapiens) [compound 611] | “++++” (≥75% = ++++) |
| 352 (SLLELLHIYV; listed as Homo sapiens) [compound 352] | “+++” (≥50 = +++) |
| 580 (LLMENAERV; listed as Homo sapiens) [compound 580] | “++” (≥20% = ++) |
| 464 (ALNDCIYSV; listed as Homo sapiens) [compound 464] | “+++” (≥50 = +++) |
| 46 (ILTEENIHL; listed as Homo sapiens) [compound 46] | “+++” (≥50 = +++) |
| 124 (ALYETELADA; listed as Homo sapiens) [compound 124] | “++” (≥20% = ++) |
| 493 (GLLGEKTQDLIGV; listed as Homo sapiens) [compound 493] | “+++” (≥50 = +++) |
| 152 (ILFEDIFDV; listed as Homo sapiens) [compound 152] | “+++” (≥50 = +++) |
| 181 (LLWAGTAFQV; listed as Homo sapiens) [compound 181] | “+++” (≥50 = +++) |
| 458 (SLIDKLYNI; listed as Homo sapiens) [compound 458] | “++” (≥20% = ++) |
| 623 (YLVEDIQHI; listed as Homo sapiens) [compound 623] | “+++” (≥50 = +++) |
| 43 (VLSSLEINI; listed as Homo sapiens) [compound 43] | “++” (≥20% = ++) |
| 334 (TLTKVLVAL; listed as Homo sapiens) [compound 334] | “+++” (≥50 = +++) |
| 441 (ALLENPKMEL; listed as Homo sapiens) [compound 441] | “+++” (≥50 = +++) |
| 325 (FIMPATVADATAV; listed as Homo sapiens) [compound 325] | “+++” (≥50 = +++) |

| Substance | Peptide exchange (MHC class I binding score, peptide exchange yield) |
| --- | --- |
| 621 (VLMDRLPSLL; listed as Homo sapiens) [compound 621] | “++++” (≥75% = ++++) |
| 592 (RLLSAAENFL; listed as Homo sapiens) [compound 592] | “+++” (≥50 = +++) |
| 578 (FLDPGGPMMKL; listed as Homo sapiens) [compound 578] | “+++” (≥50 = +++) |
| 564 (TVTNAVVTV; listed as Homo sapiens) [compound 564] | “+++” (≥50 = +++) |
| 364 (LLQNEQFEL; listed as Homo sapiens) [compound 364] | “+++” (≥50 = +++) |
| 269 (RVLEVGALQAV; listed as Homo sapiens) [compound 269] | “++” (≥20% = ++) |
| 472 (KLLEVSDDPQV; listed as Homo sapiens) [compound 472] | “+++” (≥50 = +++) |
| 551 (KLYESLLPFA; listed as Homo sapiens) [compound 551] | “+++” (≥50 = +++) |
| 309 (GLFDGVPTTA; listed as Homo sapiens) [compound 309] | “+++” (≥50 = +++) |
| 175 (YLFENISQL; listed as Homo sapiens) [compound 175] | “+++” (≥50 = +++) |
| 586 (KLKPGDLVGV; listed as Homo sapiens) [compound 586] | “+++” (≥50 = +++) |
| 176 (YLMEGSYNKVFL; listed as Homo sapiens) [compound 176] | “++” (≥20% = ++) |
| 287 (FLNEFFLNV; listed as Homo sapiens) [compound 287] | “+++” (≥50 = +++) |
| 146 (SLATAGDGLIEL; listed as Homo sapiens) [compound 146] | “++” (≥20% = ++) |
| 178 (ALTEIAFVV; listed as Homo sapiens) [compound 178] | “++++” (≥75% = ++++) |
| 562 (YLEELPEKLKL; listed as Homo sapiens) [compound 562] | “+++” (≥50 = +++) |
| 548 (ALWENPESGEL; listed as Homo sapiens) [compound 548] | “++” (≥20% = ++) |
| 106 (LLYDAVHIVSV; listed as Homo sapiens) [compound 106] | “+++” (≥50 = +++) |
| 96 (YIFTDNPAAV; listed as Homo sapiens) [compound 96] | “+++” (≥50 = +++) |
| 134 (YLQELIFSV; listed as Homo sapiens) [compound 134] | “+++” (≥50 = +++) |
| 84 (VTFGEKLLGV; listed as Homo sapiens) [compound 84] | “++” (≥20% = ++) |
| 436 (HLAEVSAEV; listed as Homo sapiens) [compound 436] | “+++” (≥50 = +++) |
| 129 (GLLDGGVDILL; listed as Homo sapiens) [compound 129] | “+++” (≥50 = +++) |

| Substance | Peptide exchange (MHC class I binding score, peptide exchange yield) |
| --- | --- |
| 267 (ALQDFLLSV; listed as Homo sapiens) [compound 267] | “+++” (≥50 = +++) |
| 539 (ALFDAQAQV; listed as Homo sapiens) [compound 539] | “+++” (≥50 = +++) |
| 561 (YLQLTQSEL; listed as Homo sapiens) [compound 561] | “+++” (≥50 = +++) |
| 377 (FLLDSSASV; listed as Homo sapiens) [compound 377] | “++” (≥20% = ++) |
| 194 (ALPLFVITV; listed as Homo sapiens) [compound 194] | “+++” (≥50 = +++) |
| 583 (ILANDGVLLAA; listed as Homo sapiens) [compound 583] | “+++” (≥50 = +++) |
| 169 (NLPEYLPFV; listed as Homo sapiens) [compound 169] | “+++” (≥50 = +++) |
| 221 (ALYEEGLLL; listed as Homo sapiens) [compound 221] | “++” (≥20% = ++) |
| 314 (ALIAEGIALV; listed as Homo sapiens) [compound 314] | “+++” (≥50 = +++) |
| 607 (RLYSGISGLEL; listed as Homo sapiens) [compound 607] | “+++” (≥50 = +++) |
| 393 (GLLDTQTSQVLTA; listed as Homo sapiens) [compound 393] | “++” (≥20% = ++) |
| 273 (NLFQSVREV; listed as Homo sapiens) [compound 273] | “++” (≥20% = ++) |
| 107 (FLQPVDDTQHL; listed as Homo sapiens) [compound 107] | “+++” (≥50 = +++) |
| 282 (LLADVVPTT; listed as Homo sapiens) [compound 282] | “+++” (≥50 = +++) |
| 402 (VLFSGALLGL; listed as Homo sapiens) [compound 402] | “++” (≥20% = ++) |
| 566 (VIADGGIQNV; listed as Homo sapiens) [compound 566] | “++” (≥20% = ++) |
| 389 (LLADVTHLL; listed as Homo sapiens) [compound 389] | “++” (≥20% = ++) |
| 454 (KLPPPPPQA; listed as Homo sapiens) [compound 454] | “+++” (≥50 = +++) |
| 446 (QLIPALAKV; listed as Homo sapiens) [compound 446] | “+++” (≥50 = +++) |
| 367 (SLQNHNHQL; listed as Homo sapiens) [compound 367] | “+++” (≥50 = +++) |
| 379 (IMEGTLTRV; listed as Homo sapiens) [compound 379] | “++” (≥20% = ++) |
